Reference: paper PMC5612953, “Stable MOB1 interaction with Hippo/MST is not essential for development and tissue growth control” (Nature Communications, 2017)
Where a chain is given by its changes, count along the chain named. Numbers in names are those of the source.

T1: human NDR2 (residues 25-88), N-terminal regulatory domain (NTR) (human, UniProt Q9Y2H1 25-88)
T1 chain: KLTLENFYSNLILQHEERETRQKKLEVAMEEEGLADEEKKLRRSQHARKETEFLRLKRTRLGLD

T2: human LATS1 (residues 640-703), NTR (human, UniProt O95835 640-703)
T2 chain: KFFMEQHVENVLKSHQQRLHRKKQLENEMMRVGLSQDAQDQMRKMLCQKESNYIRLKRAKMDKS

T3: LATS1 (640-703, V647Y) (human, UniProt O95835 640-703, V647Y)
T3 sequence: T2 chain with V8Y

T4: human NDR2 (residues 25-88), N-terminal regulatory domain (NTR) (human, UniProt Q9Y2H1 25-88)
T4 construct: human NDR2, residues 25-88 (NTR); also called NDR2 (25-88); NTR of NDR2; source: E. coli BL21(DE3), purified (Ni-NTA)
T4 sequence (looked up): T1 chain

T5: human LATS2 (residues 603-666), NTR (human, UniProt Q9NRM7 603-666)
T5 chain: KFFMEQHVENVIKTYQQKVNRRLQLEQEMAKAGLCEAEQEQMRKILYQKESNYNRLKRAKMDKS

T6: human NDR1 (residues 24-87), NTR (human, UniProt Q15208 24-87)
T6 chain: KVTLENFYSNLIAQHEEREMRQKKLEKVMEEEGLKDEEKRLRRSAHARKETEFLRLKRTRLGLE

T7: LATS2 (603-666, V610Y) (human, UniProt Q9NRM7 603-666, V610Y)
T7 sequence: T5 chain with V8Y

T8: phospho-MOB1(K104E/K105E), full length, recombinant (human, UniProt Q9H8S9 1-216, K104E | K105E, phosphorylated in vitro by MST2 (residues 2-308); the paper names Thr12 and Thr35 as the MST1/2 phosphorylation sites of MOB1)
T8 sequence: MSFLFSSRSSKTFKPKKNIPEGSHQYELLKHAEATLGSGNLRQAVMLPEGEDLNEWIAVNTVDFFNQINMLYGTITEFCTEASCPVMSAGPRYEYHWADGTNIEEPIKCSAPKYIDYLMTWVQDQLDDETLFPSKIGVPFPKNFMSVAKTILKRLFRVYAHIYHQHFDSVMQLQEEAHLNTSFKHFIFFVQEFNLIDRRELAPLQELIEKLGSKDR

T9: unphosphorylated full-length MOB1A(K104E/K105E), recombinant (human, UniProt Q9H8S9 1-216, K104E | K105E)
T9 sequence: T8 sequence

T10: unphosphorylated full-length MOB1A(K104E/K105E), recombinant (human, UniProt Q9H8S9 1-216, K104E | K105E)
T10 construct: human MOB1A, full length; also called Unphosphorylated MOB1(K104E/K105E); MOB1(K104E/K104E); source: E. coli, purified as MOB1A (33-216) (Ni-NTA)
T10 sequence (looked up): T8 sequence

T11: phospho-MOB1(K104E/K105E), full length, recombinant (human, UniProt Q9H8S9 1-216, K104E | K105E, phosphorylated in vitro by MST2 (residues 2-308); the paper names Thr12 and Thr35 as the MST1/2 phosphorylation sites of MOB1)
T11 construct: human MOB1A, full length; source: E. coli, purified (Ni-NTA), then phosphorylated in vitro by MST2 (2-308)
T11 sequence (looked up): T8 sequence

T12: non-phosphorylated full-length MOB1A wild-type (human, UniProt Q9H8S9 1-216)
T12 construct: human MOB1A, full length; pET28a vector; also called unphosphorylated full-length MOB1; non-phosphorylated MOB1; source: E. coli, purified as MOB1A (33-216) (Ni-NTA)
T12 sequence (looked up): T8 sequence with E104K, E105K

B1: MST2-phosphorylated full-length MOB1A (phospho-MOB1) (natural protein, human, UniProt Q9H8S9 1-216, looked up)
chain: T8 sequence with E104K, E105K
modifications: phosphorylated in vitro by MST2 (residues 2-308); the paper names Thr12 and Thr35 as the MST1/2 phosphorylation sites of MOB1
notes: human MOB1A, full length; the methods describe the phosphorylation reaction for MOB1A (33-216); results and legend call phospho-MOB1 full length; also called MST1/2-phosphorylated full-length MOB1; source: E. coli, purified (Ni-NTA), then phosphorylated in vitro by MST2 (2-308)
B2: non-phosphorylated full-length MOB1A wild-type (natural protein)
chain: T8 sequence with E104K, E105K
B3: NDR1 (24-87, Y31V) (domain or fragment)
chain: T6 chain with Y8V
B4: LATS1 (640-703, V647Y) (domain or fragment, human, UniProt O95835 640-703, looked up)
chain: T2 chain with V8Y
notes: human LATS1, residues 640-703 (NTR); also called LATS1(V647Y); source: E. coli BL21(DE3), purified (Ni-NTA)
B5: human LATS2 (residues 603-666), NTR (domain or fragment, UniProt Q9NRM7 603-666, looked up)
chain: T5 chain
notes: human LATS2, residues 603-666 (NTR), codon-optimized synthetic gene; also called NTR of LATS2; source: E. coli BL21(DE3), purified (Ni-NTA)
B6: human LATS1 (residues 640-703), NTR (domain or fragment, UniProt O95835 640-703, looked up)
chain: T2 chain
notes: human LATS1, residues 640-703 (NTR); also called LATS1 (640-703); LATS1 wild-type; source: E. coli BL21(DE3), purified (Ni-NTA)
B7: human NDR1 (residues 24-87), NTR (domain or fragment, UniProt Q15208 24-87, looked up)
chain: T6 chain
notes: human NDR1, residues 24-87 (NTR); also called NTR of NDR1; source: E. coli BL21(DE3), purified (Ni-NTA)
B8: LATS2 (603-666, V610Y) (domain or fragment, human, UniProt Q9NRM7 603-666, looked up)
chain: T5 chain with V8Y
notes: human LATS2, residues 603-666 (NTR), codon-optimized synthetic gene; also called LATS2(V610Y); source: E. coli BL21(DE3), purified (Ni-NTA)
B9: NDR2 (25-88, Y32V) (domain or fragment)
chain: T1 chain with Y8V

Tests used:
[1] = molecular target: T1, human NDR2 (residues 25-88), N-terminal …; test: ITC
[2] = molecular target: T2, human LATS1 (residues 640-703), NTR; test: ITC; MOB1 phosphorylated by MST2
[3] = molecular target: T3, LATS1 (640-703, V647Y); test: ITC; MOB1 phosphorylated by MST2
[4] = molecular target: B9; test: ITC; MOB1 phosphorylated by MST2
[5] = molecular target: B3; test: ITC; 25 °C, ITC200; 25 mM HEPES pH 7.5, 200 mM NaCl, 1 mM EDTA; ~240 μM MOB1A injected (20 x 2 μl) into ~24 μM NDR1, NDR2, LATS1 or LATS2 fragment in the cell; single-site model
[6] = molecular target: T4, human NDR2 (residues 25-88), N-terminal …; test: as above; conditions: both partners purified
[7] = molecular target: B7; test: as above; conditions: both partners purified
[8] = molecular target: B8; test: as above; conditions: both partners purified
[9] = molecular target: B4; test: as above; conditions: both partners purified
[10] = molecular target: B3; test: ITC; MOB1 phosphorylated by MST2
[11] = molecular target: T5, human LATS2 (residues 603-666), NTR; test: ITC; MOB1 phosphorylated by MST2
[12] = molecular target: T6, human NDR1 (residues 24-87), NTR; test: ITC; MOB1 phosphorylated by MST2
[13] = molecular target: T7, LATS2 (603-666, V610Y); test: ITC; MOB1 phosphorylated by MST2
[14] = molecular target: T3, LATS1 (640-703, V647Y); test: ITC
[15] = molecular target: T6, human NDR1 (residues 24-87), NTR; test: ITC
[16] = molecular target: T7, LATS2 (603-666, V610Y); test: ITC
[17] = molecular target: T8, phospho-MOB1(K104E/K105E), full length, …; test: ITC; phosphorylated MOB1
[18] = molecular target: T9, unphosphorylated full-length …; test: ITC
[19] = molecular target: T10, unphosphorylated full-length …; test: ITC; 25 °C, ITC200; 25 mM HEPES pH 7.5, 200 mM NaCl, 1 mM EDTA; ~240 μM MOB1A injected (20 x 2 μl) into ~24 μM NDR1, NDR2, LATS1 or LATS2 fragment in the cell; single-site model; conditions: both partners purified
[20] = molecular target: T11, phospho-MOB1(K104E/K105E), full length, …; test: as above; conditions: both partners purified
[21] = molecular target: T12, non-phosphorylated full-length MOB1A …; test: as above; conditions: both partners purified

Kd [17] [µM] | Kd [18] [µM] | binding result [19] | binding result [20] | binding result [21] | Binder | further results
 |  |  |  |  | B1 | Kd [1]: 0.578 µM; Kd [2]: 19.6 µM; Kd [3]: 4.42 µM; Kd [4]: 9.9 µM; fold decrease in affinity against wild-type NDR1 [5]: 20 fold; fold increase in affinity against LATS1 or LATS2 [6]: ≥ 15 fold; fold increase in affinity against LATS1 or LATS2 [7]: ≥ 15 fold; fold increase in affinity against wild-type LATS2 [8]: 5 fold; fold increase in affinity against wild-type LATS1 [9]: 5 fold; Kd [10]: 2.82 µM; Kd [11]: 8.93 µM; Kd [12]: 0.136 µM; Kd [13]: 1.54 µM
 |  |  |  |  | B2 | Kd [14]: 16.9 µM; Kd [1]: 12.3 µM; Kd [15]: 8.06 µM; Kd [16]: 11.5 µM
2.34 |  |  |  |  | B3 | 
3.83 | 14.1 | binds | binds | binds | B4 | 
8.4 |  |  | binds |  | B5 | 
16.2 |  |  | binds |  | B6 | 
0.124 | 7.94 | binds | binds | binds | B7 | 
1.3 | 12.2 | binds | binds | binds | B8 | 
8.7 |  |  |  |  | B9 | 
